Here are results for one substance from paper PMC7157747.

Broadly, the stoichiometry N is the number of molecules, sites or subunits per partner or assembly.

The target in this experiment is Recombinant Surface Immunogenic Protein (rSIP) of Group B Streptococcus, expressed in E. coli (Group B Streptococcus (GBS), serotype III). The experiment in a line: SEC; Size exclusion chromatography by HPLC of purified rSIP; PSS-pro kit as standard curve for molecular mass; 6 M urea used as monomer control. (In general: SEC sorts molecules by how far they enter the pores of the column.)

Consider “Recombinant Surface Immunogenic Protein (rSIP) of Group B Streptococcus, expressed in E. coli (natural protein)”, for which the stoichiometry N was found to be 2.
